Data from the nanobody polyreactivity screen of Harvey et al. (2022).

test: yeast display, Sf9 membrane polyspecificity reagent, FACS + sequencing; frameworks hold sequencing errors
How it was run: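 After 36–48 hours of galactose induction, yeast (Saccharomyces cerevisiae BJ5465) displaying a synthetic nanobody library were stained at 4 °C for 1 hour with 10% biotinylated, detergent-solubilized Sf9 membrane reagent. Streptavidin microbeads enriched the stained cells before FACS sorting into low and high (top ~1%) gates on anti-HA and streptavidin fluorescence. Each clone's polyreactivity label reflects its gate of origin.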

Row | Sequence | polyreactivity (PSR sort gate)
1 | QVQLVESGGGLVQAGRSLRLSCAASGLIFSWYAMGWYRQAPGKEREFVAAIRWSGSGTYYADSVKGRFTISRDNAKNTVYLQMNSLKPEDTAVYYCAVRWSSGSRRYNYWGQGTQVTVSS | high polyreactivity
2 | QVQLVESGGGLVQAGGSLRLSCAASGRIIGIKAMGWYRLAPGKEMELVATITSGGDTNYADSVKGRFTISRDNAKNTVYIQMNSLKPEDTAVYYCNAESYGLGIGYEYWGQGTQVTVSS | low polyreactivity
3 | QVQLVESGGGLVQAGGSLRLSCAASGNIFGNNAMGWYRQAPGKERELVAAISSSGTSTYYADSVKGRFTISRDNAKNTVYFQMNSLKPEDTAVYYCNADPLPYDGYYDYDYWGQGTQVTVSS | low polyreactivity
4 | QVQLVESGGGLVQAGGSLRLSCAASGRIFGLYAMGWYRQAPGKERELVAAYADSVKGRFTISRDYAKNTVYLQMNSLKPEDTAVYYCAKGPLYAGYSIDLRDFNYWGQGTQVTVSS | low polyreactivity
5 | QVQLVESGGGLVQAGGSLRLSCAASGGTFTNYAMGWYRQAPGKERELVAAITDSGATTYYADSVKGRFTISRDNAKNTVYLQMNSLKPEDTAVYYCNAALDLYTDFDYWGQGTQVTVSS | low polyreactivity
6 | QVQLVESGGRLVQAGGSLRLISAASGFTFRAYAMGWYRQAPGKERELVAAINISGGSTYYADSVKGRFTISRDNAKKTVYLKMNSLKPEDTAVYYCAADWPEDWYTEYGYWGQGTQVTVSS | low polyreactivity
7 | QVQLVESGGGIVQAGGSLRLSCAASGITFGSYVMGWYRQAPGKERELVAAINIGGGTYYADSVKGRFTISRDNAKNTVYLQMISLKPEDTAVYYCARDFYWYYRAARLDYWGQGTQVTVSS | high polyreactivity
8 | QVQLVESGGGLVQAGGSLRLSCAASGRTRHGYTMGWYRQAPGKERELVATISSIGGSTYYADSLKGRFTISRDNAKNTVYLQMNSLKPEDTAVYYSNRGRARVIFSGMDYWGQGTQVTVSS | low polyreactivity
9 | QDQLVESGGGLVQAGGSLRLICAASGRSLIHYAMGWYRQAPGKERELVASMTYSGGSTYYADSVKGRFTISRDNAKMTVYLQMNSLKPEDTAVYYCAATLGNRWFHYNYWGQGTQVTVSS | low polyreactivity
10 | QVQLEESGGGLVHAGGSLRLSCAASGFTCDNYAMGWYRQAPGKERELVAAISNSGGRTYYADSVKGRFTISRDNAKNTVYLQMNSLKPEDTAVYYCTIFKDFDYWGQGTQVTVSS | high polyreactivity
11 | QVQLVESGGGLVQAGGSLRLSCAASGIIFLWYAMGWYRQAPWKERELVAAISRTGSSTYYADSVKGRFTISRDNAKNTVYLQMNSLKPEDTAVYYCAAAYYSKRSWRFDYWGQGTQVTVSS | high polyreactivity
12 | QVQLVESGGGLVQAGGSLRLSCAASGRIFSLYAMGWYRQAPGKDRELVAAISRGGSTYYADSVKGRFTISRDNAKNTVYLQMNSLKPEDTAVSYCARRYWYPDAFYRYDYWGQGTQVTVSS | low polyreactivity
13 | QVQRVESGGGLVQAGGSLRLSCAASGSTFEYYAMGWYRQAPGKERELVAAISGGGSTNYADSVKGRFTISRDNAKNTVYLQMNSLTPEVTAVYYCNASDVGSRTSNYWGQGTQVTVSS | low polyreactivity
14 | QVQLVESGGGLVQAGGSLRLSCASSGRIFGTYAMGWYRQAPGKERELVARIRTSGSTNYADSVKGRFTISRDNAKNTVYLQMNSLKPEDTAVYYCAADRRYYSAYEYWGQGTQVTVSS | high polyreactivity
15 | QVQLVESGGGLVQAGGSLRLSCAASGIIFDLNAMGWYRQAPGKERELVAAITSGGSTYYADSVKGRFTISRDNAKNTVYLQMNSLKPEDTAVYYCAADYQAGDKLYDYWGQGTQVTLSS | low polyreactivity
16 | QVQLVESGGGLVQAGGSLRLSCAASGYTFASYDMGWYRQAPGKERELVAAIDWSGGSTYYADSVKGRFTISRDNAKNTVYLQMNSLKPEDTAVYYCAAERPWTYGSDGMDFWGQGTQVTVSS | low polyreactivity

Row | Sequence | polyreactivity (PSR sort gate)
17 | QVQLVESAVGLVQAGGSLRLSCAASGTTFVRYAMGWYRQAPGKEREFVAASSKSGGSTYYADSVKGRFTISRDNAKNPVYLQMNSLKPEDTAVYYCATRTTYGQSGSAGPRPSNYWGQGTQVTVSS | low polyreactivity
18 | QVQLVESGGGLVQAGCSLRLSCAASGSIFTINAMGWYREAPGKERELVAAISFGGGSTYYADSVKGRFTISRDNAKITGYLQMNSLKREDTAVYYCAAEDWWGYDYWGQGNQVTVSS | high polyreactivity
19 | QVQLVESGGGLVQAGGSLRLSCAASGSTFYHYAMGWYRQAPGKERELVASISHSGGRTFYADSVKGRFTISRDNAKNTVYLQMNSLKPEDTAVYYCAADWRTLTEYGYKGYYWGLGTQVTVSS | low polyreactivity
20 | QVQLVESGGGLVQAGGSLRLSCAASGFIFSSYAMGWYRQAPGKERELVASTSRRAGRTYYADSVKGRFTISRDNAKNTVYVQMNSLKPEDSAVYYCAAEARVGYHFQILDYWGQGTQVTVSS | high polyreactivity
21 | QVQLVESGGGLVQAGGSLRLSCAASGSTFNCYHMGWYRQAPGKEMELVAAITGSGGYTYYADSVKGRFTISRDNAKNTVYLQMKSLNPEETAVYYCAAKKVAGRRFYYWGQGTQVTVSS | low polyreactivity
22 | QVQLVESGGGLVQAGGSLRLSCAASGYIFWINSMGWYRQAPGKERELVAAIRYSTGRTYYADSVKGRFTISRDNAKNTVYLQMNSQKPEDTAVYYCNARSWYIRGSQEYYYWGQGTQLTVSS | high polyreactivity
23 | QVQLVESGGGLVQAGGSLRLSCAASGSIFLDNAMGWYRQAPGKERELVAAISWSAGSTYYADSVKGRFTISRDNAKNTVYLQMNSLKPEDTAVYYCAAESYPGWYWDDYWGQGTQVTVSS | high polyreactivity
24 | QVQLVESGGGLVQAGGSLRLSCAASGSTFRYYAMGWYRQAPGKERELVAAISGSGGRTYYADSVKGRFTISRDNAKNTVYLQMNSLKPEDTAVYYCNTRGRRTDYDYWGQGTQVTVSS | high polyreactivity
25 | QVLLVESRGGLVQAGGSLRLSCAASGGTFSYYAMGWYRQAPAKERELVAAISASGGSTYYADSVKGRFTISRDNAMNTVYLQRNSLKPEDTAVYYCNARYPYYFYAGNYWGQGTQVTVSS | low polyreactivity
26 | QVQLVESGGGLVQAGGILRLSCAASGFTFGWNAMGWYRQAPGKERELVAAITSGGITNYADSVKGRFTISRDNAKNTVYLQMNSLKPEDTAVYYCNARPTSRRSWYYWKGYDYWGQGTQVTVSS | high polyreactivity
27 | QVQLVESGGGLVQAGGSLRLSCAASGRIFGLNAMGWYRQAPGKEREFVAAITWRGGRTYYADSVKGRFTISRDNAKNTVYLQMNSLKPEDTAVYYCAADGGSTLDYYWGQGTQVTVSS | low polyreactivity
28 | QVQLVESGGGLVQAGGSLRLSCAASGSTISSNAMGWYRQAPGKERELVAAIDSGGSTYYADSVKGRFTISRDNAKNTVYLQMNSLKPEDTAVYYCNPERETYDTGRAVLPGGYWGQGTQVTVSS | low polyreactivity
29 | QVQLVESGGGLVQAGGSLRLSCAASGSTFRYNTMGWYRQAPGKERELVAGITSGGGRTYADSVKGRFTISRDNAKNTVYLQMNSLKPEDTAVYYCAAGKYYFLSRYDSWGQGTQVTVSS | low polyreactivity
30 | QVQLVESGGGLVQAGGSLRLSCAASGSTFTVNDMGWYRQAPGKERELVAAITQRDGRTFYADSVKGRFTISRDNAQNTVYLLMNSLKPEDTAVYYCAADYGWYTYGDYDYWGQGTQVTVSS | low polyreactivity
31 | QVQLVESGGGLVQAGGSLRLSCAASGSTFRGNAMGWYRQAPGKERELVAAITRRGGSTYYADSVKGRFTISRDNAKNTVYLQMNRLKPEDTAVYYCAADWGNDWWGLFWGDYWGQGTQVTVSS | high polyreactivity
32 | QVQLVESGGGLVHAGGSLRLSCAASGLIFRGYAMGWYRQAPGKERELVAAISKSGGSTYYADSVKGRFTISRDNAKNTVYLQLNSLKPEDTAVYYCITDYVWKYFLSSQYDYWGQGTQVTVSS | high polyreactivity
